The target in data set [1] is Bovine serum albumin (BSA), P02769.
For data set [2], the target named is BSA exposed to kaolin, P02769.
In data set [3] the target is endostatin exposed to kaolin, P39060.
Data set [4] has as its target Gelofusin mixed with lipopolysaccharide (LPS).
Data set [5] has as its target BSA incubated overnight with dextran sulphate 500,000 Da (DXS500k), P02769.
Data set [6] concerns the target Gelofusin mixed with kaolin.
Data set [7] addresses BSA exposed to Ellagic acid, P02769.
Data set [8] deals with T1, endostatin exposed to Ellagic acid, P39060.
T1 chain: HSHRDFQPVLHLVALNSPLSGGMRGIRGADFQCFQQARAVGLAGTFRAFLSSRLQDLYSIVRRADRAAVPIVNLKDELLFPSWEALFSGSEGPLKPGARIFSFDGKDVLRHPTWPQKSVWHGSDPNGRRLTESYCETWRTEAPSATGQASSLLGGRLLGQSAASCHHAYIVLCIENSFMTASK

The target in data set [9] is Gelofusin (Braun Melsungen AG).
For data set [10], the target named is endostatin, a recombinantly produced fragment of human collagen XVIII (EntreMed), P39060.
The target of data set [11] is endostatin incubated overnight with DXS500k, P39060.
The target of data set [12] is glycated haemoglobin (Hb-AGE), P69905.
For data set [13], the target named is lysozyme exposed to Microlance-3 injection needles, P00698.
Chain of lysozyme exposed to Microlance-3 injection needles, P00698 (P00698 19-147): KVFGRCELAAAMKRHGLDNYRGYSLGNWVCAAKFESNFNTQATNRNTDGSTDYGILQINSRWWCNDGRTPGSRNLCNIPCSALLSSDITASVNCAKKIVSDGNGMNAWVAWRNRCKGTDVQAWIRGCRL

Chain of glycated haemoglobin (Hb-AGE), P69905 (P69905 2-142, chain 1 of 2): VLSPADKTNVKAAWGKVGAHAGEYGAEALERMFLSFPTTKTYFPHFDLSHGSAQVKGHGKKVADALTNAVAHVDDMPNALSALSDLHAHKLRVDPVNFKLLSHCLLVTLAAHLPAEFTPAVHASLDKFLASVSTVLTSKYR
Chain of glycated haemoglobin (Hb-AGE), P69905 (chain, as listed by the source, chain 2 of 2): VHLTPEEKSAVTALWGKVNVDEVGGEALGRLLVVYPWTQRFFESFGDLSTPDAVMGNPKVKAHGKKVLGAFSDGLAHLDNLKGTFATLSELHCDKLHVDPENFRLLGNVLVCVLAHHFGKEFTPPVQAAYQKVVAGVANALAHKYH
Chain of Bovine serum albumin (BSA), P02769 (P02769 25-607): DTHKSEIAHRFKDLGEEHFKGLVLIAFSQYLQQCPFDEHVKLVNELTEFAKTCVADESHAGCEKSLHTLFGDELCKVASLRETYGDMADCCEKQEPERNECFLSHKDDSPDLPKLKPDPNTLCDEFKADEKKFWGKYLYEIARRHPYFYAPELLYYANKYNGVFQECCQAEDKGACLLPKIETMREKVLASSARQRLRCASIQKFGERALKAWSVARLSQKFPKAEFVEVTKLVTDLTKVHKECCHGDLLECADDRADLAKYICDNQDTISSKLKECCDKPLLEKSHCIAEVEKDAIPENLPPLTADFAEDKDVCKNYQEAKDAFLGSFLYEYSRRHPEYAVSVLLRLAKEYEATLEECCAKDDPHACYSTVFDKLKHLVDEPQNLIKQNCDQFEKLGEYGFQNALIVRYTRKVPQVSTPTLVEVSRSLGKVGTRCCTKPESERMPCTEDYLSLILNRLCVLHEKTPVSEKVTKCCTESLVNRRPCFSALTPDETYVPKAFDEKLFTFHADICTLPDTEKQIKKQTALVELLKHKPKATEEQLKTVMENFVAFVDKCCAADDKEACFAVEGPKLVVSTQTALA
Chain of BSA exposed to Ellagic acid, P02769 (P02769 25-607): as above
Chain of BSA incubated overnight with dextran sulphate 500,000 Da (DXS500k), P02769 (P02769 25-607): as above
Chain of BSA exposed to kaolin, P02769 (P02769 25-607): as above

B1: factor XII (FXII, Calbiochem 233490) (protein)
chain: IPPWEAPKEHKYKAEEHTVVLTVTGEPCHFPFQYHRQLYHKCTHKGRPGPQPWCATTPNFDQDQRWGYCLEPKKVKDHCSKHSPCQKGGTCVNMPSGPHCLCPQHLTGNHCQKEKCFEPQLLRFFHKNEIWYRTEQAAVARCQCKGPDAHCQRLASQACRTNPCLHGGRCLEVEGHRLCHCPVGYTGAFCDVDTKASCYDGRGLSYRGLARTTLSGAPCQPWASEATYRNVTAEQARNWGLGGHAFCRNPDNDIRPWCFVLNRDRLSWEYCDLAQCQTPTQAAPPTPVSPRLHVPLMPAQPAPPKPQPTTRTPPQSQTPGALPAKREQPPSLTRNGPLSCGQRLRKSLSSMTRVVGGLVALRGAHPYIAALYWGHSFCAGSLIAPCWVLTAAHCLQDRPAPEDLTVVLGQERRNHSCEPCQTLAVRSYRLHEAFSPVSYQHDLALLRLQEDADGSCALLSPYVQPVCLPSGAARPSETTLCQVAGWGHQFEGAEEYASFLQEAQVPFLSLERCSAPDVHGSSILPGMLCAGFLEGGTDACQGDSGGPLVCEDQAAERRLTLQGIISWGSGCGDRNKPGVYTDVAYYLAWIREHTVS
Regarding B1, the “FXII activation (conversion of Chromozym-PK by kallikrein)” value was “Neither BSA or endostatin alone, nor kaolin or DXS500k alone are efficient activators of FXII” in [1]; “combinations of surface and protein cofactor results in FXII and subsequent prekallikrein activity” in data set [2]; “combinations of surface and protein cofactor results in FXII and subsequent prekallikrein activity” in data set [3]; “combinations of surface and protein cofactor results in FXII and subsequent prekallikrein activity” in data set [5]; “Neither BSA or endostatin alone, nor kaolin or DXS500k alone are efficient activators of FXII” in data set [10]; “combinations of surface and protein cofactor results in FXII and subsequent prekallikrein activity” in data set [11]. For the same protein, the “chromogenic factor XII/prekallikrein activation assay with active enzyme kallikrein read-out” value in data set [4] was “enhanced activity is seen when Gelofusin is mixed with kaolin or LPS”; in [6], “enhanced activity is seen when Gelofusin is mixed with kaolin or LPS”; in data set [9] it was “Gelofusin alone does not stimulate factor XII/prekalikrein activation”. Further, the “chromogenic factor XII/prekallikrein activation assay” value in data set [7] and in data set [8] was “exposure of the proteins to the polyphenol surface induces increased capacity to activate factor XII/prekallikrein” throughout. Also, the FXII activation entry in data set [12] is “Presence of cross-β structure conformation in Hb-AGE was conformed by tPA binding, tPA activation, FXII activation”.

B2: tissue-type plasminogen activator (tPA, Actilyse, Boehringer-Ingelheim) (protein)
chain: SYQVICRDEKTQMIYQQHQSWLRPVLRSNRVEYCWCNSGRAQCHSVPVKSCSEPRCFNGGTCQQALYFSDFVCQCPEGFAGKCCEIDTRATCYEDQGISYRGTWSTAESGAECTNWNSSALAQKPYSGRRPDAIRLGLGNHNYCRNPDRDSKPWCYVFKAGKYSSEFCSTPACSEGNSDCYFGNGSAYRGTHSLTESGASCLPWNSMILIGKVYTAQNPSAQALGLGKHNYCRNPDGDAKPWCHVLKNRRLTWEYCDVPSCSTCGLRQYSQPQFRIKGGLFADIASHPWQAAIFAKHRRSPGERFLCGGILISSCWILSAAHCFQERFPPHHLTVILGRTYRVVPGEEEQKFEVEKYIVHKEFDDDTYDNDIALLQLKSDSSRCAQESSVVRTVCLPPADLQLPDWTECELSGYGKHEALSPFYSERLKEAHVRLYPSSRCTSQHLLNRTVTDNMLCAGDTRSGGPQANLHDACQGDSGGPLVCLNDGRMTLVGIISWGLGCGQKDVPGVYTKVTNYLDWIRDNMRP
As for B2, the “Plg-activation assay (plasmin substrate S-2251)” value in data set [13] is recorded as “When the plasma protein lysozyme is exposed to the stainless steel of a Microlance-3 injection needle, tPA activating properties are induced”.

Source of the values: patent US20080249606.
